Columns and labels:
[1] = biological target: FcγRIIb (UniProt P31994); assay: SPR (Biacore T100), antibody captured on protein A chip, receptor injected as analyte
[2] = biological target: FcγRIIIa-F158 (UniProt P08637); assay: SPR (Biacore T100), antibody captured on protein A chip, receptor injected as analyte, 1:1 steady-state fit
Sequence of FcγRIIIa-F158 (P08637 17-208 limits assumed): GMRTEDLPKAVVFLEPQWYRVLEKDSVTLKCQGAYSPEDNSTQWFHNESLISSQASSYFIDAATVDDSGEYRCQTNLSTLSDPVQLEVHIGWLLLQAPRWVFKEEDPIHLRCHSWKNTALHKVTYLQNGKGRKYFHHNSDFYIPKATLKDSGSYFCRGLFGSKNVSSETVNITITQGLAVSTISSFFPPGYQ

Sequence of FcγRIIb (P31994 46-217 limits assumed): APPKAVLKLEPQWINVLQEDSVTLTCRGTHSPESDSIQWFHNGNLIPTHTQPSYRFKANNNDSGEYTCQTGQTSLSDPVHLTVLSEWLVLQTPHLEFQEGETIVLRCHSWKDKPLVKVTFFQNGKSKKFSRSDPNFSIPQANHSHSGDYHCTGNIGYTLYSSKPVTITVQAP

Kd [1]: 2300 nM
Kd [2]: 123 nM
Substance: nonfucosylated G2 glycoform of rituximab (10) (antibody)

Source: patent US20150087814A1
